Laboratory results taken from US11905559B2, “Materials and methods for controlling gene expression” (priority 2016, dated 2024).
Where “and” joins values, the source holds several entries; their conditions need not be identical. Equal values may be shown once.

How the values were obtained:
[1] = in-line probing assay; read-out: KD for guanine; cited from earlier work
[2] = Constant-force optical tweezers folding assay of the wild-type aptamer in 2,6-diaminopurine (DAP); assay type: physicochemical; conditions: 3 mM Mg^2+; for Folding rate kf / Transition distance ΔX / Unfolding rate ku / ΔG (0): 250 uM DAP; for ΔG (0): zero force
Source text: Guanine binds to the aptamer via nucleobases U^22, U^47, U^51 and C^74 in the junction J1/2, J2/3 and J3/1. The hydrogen bonding between C^74 with the functional group in the 6th position of the purine is deterministic for ligand recognition. The purine analog 2,6-diaminopurine (DAP) differs from guanine in having an amino group in the 6th position (FIG. 13), and thus disrupts the hydrogen bonding pattern. […] In order to investigate if the loop-loop dynamics in the guanine-riboswitch are affected with a change in the ligand, mechanical assays in the presence of DAP were performed. […] Furthermore, a near similar L2-L3 kinetics highlighted that the tertiary and the secondary interactions remained unaffected by replacing guanine with DAP (Table 1).
In a constant-force (CF) experiment, the RNA is held at a preset force through feedback control. The preset force typically fluctuated around the mean with a standard deviation ±0.15 pN. In this mode, data is recorded from 4-40 kHz to capture the fast intermediates. The plots are shown as extension vs. time (as in FIG. 6A). In force-jump (FJ) assay, the force is suddenly jumped from one force to another, and then held constant thereafter, as shown in FIGS. 23A-B.
All FR, CF and FJ experiments were carried out at an ambient temperature, 25±0.5° C. The buffer in the microfluidics contained 10 mM Tris-HCl, pH 7.5 at 25° C., 250 mM NaCl, 3 mM MgCl2, and purine concentrations as indicated in wild-type aptamer. Unless stated otherwise, Mg^2+ concentration in the buffer was maintained at 3 mM in all experiments. The buffer in mutant m1 contained 5 mm Mg^2+ and 1 μM G, and in m3 contained 5 mM Mg^2+ and 200 nM Guanine. For the remaining m2, m4, m5 and m6 mutants, the buffer in single-molecule experiments was supplemented only with 3 mM Mg^2+ and 200 nM Guanine.

[3] = Constant-force (CF) single-molecule optical tweezers folding assay of guanine-aptamer RNAs in guanine buffer; assay type: physicochemical; conditions: for F^eq / k^eq: [G] = 200 nM; for Observed nucleotides / Observed ΔXobs: CF; for k^eq: at F^eq; for Equilibrium force F^eq / Folding rate kf / Unfolding rate ku / Transition distance ΔX / ΔG (0): 3 mM Mg^2+; for Folding rate kf / Unfolding rate ku / Transition distance ΔX / ΔG (0): 200 nM G
Procedure, shortened: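 Single RNA aptamer tethered between beads via ~550 nt handles in dual-beam optical tweezers (trap stiffness 0.04-0.06 pN/nm), held at preset force (±0.15 pN) under feedback, extension recorded at 4-40 kHz. 25±0.5 °C; 10 mM Tris-HCl pH 7.5, 250 mM NaCl, 3 mM MgCl2 plus guanine; some mutants 5 mM Mg2+.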

[4] = transition BA (P1 folding), F 8.5 pN
[5] = transition C′B (L2-L3 folding), F 8.5 pN
[6] = transition DC (P3 folding), F 12.0 pN
[7] = transition ED (P2 folding), F 13.5 pN
[8] = transition CB (J2/3 folding), F 13 pN
[9] = transition DC (P3 folding), F 13 pN
[10] = transition ED (P2 folding), F 13 pN

B1: wt: 69-nucleotide full-length wild-type guanine sensing aptamer RNA sequence from xpt-pbuX operon in B. subtilis (SEQ ID NO: 1) (nucleic acid)
chain: CACUCAUAUAAUCGCGUGGAUAUGGCACGCAAGUUUCUACCGGGCACCGUAAAUGUCCGACUAUGGGUG
modifications: RNA, backbone and methylation of C not given here
Kd [1]: ~5 nM
Equilibrium force F^eq ([2]; transition BA (P1 folding), 250 uM DAP (rates at 8.5 pN)): 9.8 ± 0.1 pN
Folding rate kf [2, 4]: 0.29 ± 0.02 s⁻¹
Transition distance ΔX [2, 4]: 9.7 ± 0.2 nm
Unfolding rate ku [2, 4]: 0.023 ± 0.004 s⁻¹
ΔG (0) ([2]; transition BA (P1 folding), from data at 8.5 pN): −16.6 ± 0.5 kBT
Equilibrium force F^eq ([2]; transition C′B (L2-L3 folding), 250 uM DAP (rates at 8.5 pN)): 8.7 ± 0.2 pN
Folding rate kf [2, 5]: 0.96 ± 0.08 s⁻¹
Transition distance ΔX [2, 5]: 3.6 ± 0.2 nm
Unfolding rate ku [2, 5]: 0.8 ± 0.06 s⁻¹
ΔG (0) ([2]; transition C′B (L2-L3 folding), from data at 8.5 pN): −7.6 ± 0.4 kBT
Equilibrium force F^eq ([2]; transition DC (P3 folding), 250 uM DAP (rates at 12.0 pN)): 12.3 ± 0.02 pN
Folding rate kf [2, 6]: 22.0 ± 0.6 s⁻¹
Transition distance ΔX [2, 6]: 7.5 ± 0.3 nm
Unfolding rate ku [2, 6]: 14.3 ± 0.4 s⁻¹
ΔG (0) ([2]; transition DC (P3 folding), from data at 12.0 pN): −15.5 ± 0.9 kBT
Equilibrium force F^eq ([2]; transition ED (P2 folding), 250 uM DAP (rates at 13.5 pN)): 13.6 ± 0.02 pN
Folding rate kf [2, 7]: 14.7 ± 0.4 s⁻¹
Transition distance ΔX [2, 7]: 7.0 ± 0.2 nm
Unfolding rate ku [2, 7]: 13.4 ± 0.4 s⁻¹
ΔG (0) ([2]; transition ED (P2 folding), from data at 13.5 pN): −16.3 ± 0.7 kBT
F^eq ([3]; Closed J2/3 (CB)): ~13 pN
Time to form the native receptor structure after guanine binding ([3]; FIG. 22): ~8 μsec
Observed nucleotides ([3]; J2/3 (CB), 13 pN): 8.4 ± 0.2
Observed ΔXobs ([3]; J2/3 (CB), 13 pN): 3.5 ± 0.1 (CF) nm
Observed ΔXobs ([3]; L2-L3 (C′B), 8.5 pN): 3.4 ± 0.1 (CF) nm
F^eq ([3]; L2-L3 (C′B)): 8.72 ± 0.11 pN
k^eq ([3]; L2-L3 (C′B)): 0.82 ± 0.06 s⁻¹
F^eq ([3]; P1 (BA)): 8.21 ± 0.11 pN
k^eq ([3]; P1 (BA)): 0.55 ± 0.09 s⁻¹
Observed nucleotides ([3]; P1+ junctions (BA), 8.5 pN): 21.7 ± 0.5
Observed ΔXobs ([3]; P1+ junctions (BA), 8.5 pN, 2 nm helix width subtracted): 8.0 ± 0.2 (CF) nm
F^eq ([3]; P2 (ED)): 13.49 ± 0.03 pN
k^eq ([3]; P2 (ED)): 13.20 ± 0.20 s⁻¹
Observed nucleotides ([3]; P2 hairpin (ED), 13 pN): 17±1
Observed ΔXobs ([3]; P2 hairpin (ED), 13 pN): 7.1 ± 0.4 (CF) nm
F^eq ([3]; P3 (DC)): 12.19 ± 0.02 pN
k^eq ([3]; P3 (DC)): 16.80 ± 0.30 s⁻¹
Observed nucleotides ([3]; P3 hairpin (DC), 13 pN): 19±1 and 18.9 ± 1
Observed ΔXobs ([3]; P3 hairpin (DC), 13 pN): 7.9 ± 0.4 (CF) nm
Barrier ΔGP1^‡ before folding of the P1-stem ([3]; free energy landscape transformed to zero force): ~6 kBT
F^eq for P2-P3 ([3]; guanine-aptamer): ~13 pN
Rates for the two hairpins P2 and P3 ([3]; range over Table 1): 8.5 to 32.3 s⁻¹
Equilibrium force F^eq ([3]; transition BA (P1 folding), 200 nM G (rates at 8.5 pN)): 8.2 ± 0.1 pN
Folding rate kf [3, 4]: 0.4 ± 0.03 s⁻¹
Unfolding rate ku [3, 4]: 0.7 ± 0.09 s⁻¹
Transition distance ΔX ([3]; transition BA (P1 folding), F 8.5 pN, no helix width adjustment): 9.9 ± 0.2 nm
ΔG (0) ([3]; transition BA (P1 folding), zero force, from data at 8.5 pN): −13.9 ± 0.4 kBT
ΔG (0) ([3]; transition BA (P1 folding), zero force, from data at 8.5 pN, listed as wild-type): −13.9 kBT
Transition distance ΔX [3, 8]: 3.5 ± 0.1 nm
Unfolding rate ku [3, 8]: 2.6 ± 0.5 s⁻¹
ΔG (0) ([3]; transition CB (J2/3 folding), zero force, ΔG(0) = −F·ΔX + ΔGstretch): −7.2 ± 0.3 kBT
Equilibrium force F^eq ([3]; transition C′B (L2-L3 folding), 200 nM G (rates at 8.5 pN)): 8.7 ± 0.1 pN
Folding rate kf [3, 5]: 0.9 ± 0.06 s⁻¹
Transition distance ΔX [3, 5]: 3.4 ± 0.1 nm
Unfolding rate ku [3, 5]: 0.8 ± 0.05 s⁻¹
ΔG (0) ([3]; transition C′B (L2-L3 folding), zero force, from data at 8.5 pN): −7.1 ± 0.2 kBT
Equilibrium force F^eq ([3]; transition DC (P3 folding), 200 nM G (rates at 13 pN)): 12.2 ± 0.02 pN
Equilibrium force F^eq ([3]; transition DC (P3 folding), 200 nM G (rates at 13 pN), listed as wild-type): 12.2±0.02 pN
Folding rate kf [3, 9]: 8.5 ± 0.1 s⁻¹
Transition distance ΔX [3, 9]: 7.9±0.4 nm
Unfolding rate ku [3, 9]: 32.3 ± 0.5 s⁻¹
ΔG (0) ([3]; transition DC (P3 folding), zero force, from data at 13 pN): −16.3 ± 0.3 kBT
ΔG (0) ([3]; transition DC (P3 folding), zero force, from data at 13 pN, listed as wild-type): −16.3 kBT
Equilibrium force F^eq ([3]; transition ED (P2 folding), 200 nM G (rates at 13 pN)): 13.5 ± 0.03 pN
Equilibrium force F^eq ([3]; transition ED (P2 folding), 200 nM G (rates at 13 pN), listed as wild-type): 13.5±0.03 pN
Folding rate kf [3, 10]: 20.0 ± 0.4 s⁻¹
Transition distance ΔX [3, 10]: 7.1±0.4 nm
Unfolding rate ku [3, 10]: 8.9 ± 0.1 s⁻¹
ΔG (0) ([3]; transition ED (P2 folding), zero force, from data at 13 pN): −16.7 ± 0.3 kBT
Net free energy change ΔΔGaptamer ([3]; zero force, guanine-bound receptor structure): −81 kT
